pKd, pKi: −log10 of the molar value.
Tests used:
[1] = molecular target: CarD T8C labelled with BODIPY-FL (Mycobacterium tuberculosis) (UniProt P9WJG3); test: fluorescence polarisation
[2] = molecular target: Mycobacterium tuberculosis RNA polymerase, wild type (Mycobacterium tuberculosis) (UniProt P9WGY9); test: fluorescence polarisation

**Q.** How did the pKd [1] turn out when “Mycobacterium tuberculosis RNA polymerase, wild type (from UniProt P9WGY9 8-1140) (complex)” was run?
**A.** 7.19

**Q.** With “Wild-type MTB CarD, unlabeled (from UniProt P9WJG3 1-162) (natural protein)” as the substance, how does the pKi [2] read?
**A.** 8.10
